Consider 31 molecules from patent US20250339569A1 (3B PHARMACEUTICALS, published 2025).

The labels stand for the following.
B1: 3BP-3934 (peptide)
peptide: {DOTA}-YCE[dP]KWLEWSC-NH2
modifications: linker 2-11 via mXylylene; lactam 5-8
SMILES: CC(C)C[C@@H]1NC(=O)[C@H](Cc2c[nH]c3ccccc23)NC(=O)[C@@H]2CCCCNC(=O)CC[C@H](NC1=O)C(=O)N[C@@H](Cc1c[nH]c3ccccc13)C(=O)N[C@@H](CO)C(=O)N[C@H](C(N)=O)CSCc1cccc(c1)CSC[C@H](NC(=O)[C@H](Cc1ccc(O)cc1)NC(=O)CN1CCN(CC(=O)O)CCN(CC(=O)O)CCN(CC(=O)O)CC1)C(=O)N[C@@H](CCC(=O)O)C(=O)N1CCC[C@@H]1C(=O)N2
B2: 3BP-4178 (peptide)
peptide: [dP]PVYCE[dP]DWLTWSC
modifications: linker 5-14 via mXylylene; not fully specified (bridges)
notes: Bracket use differs from the other compounds; the outer cycle is read as closing pro1 with Cys14
B3: 3BP-4005 (peptide)
peptide: Ac-VYCE[dP][Orn]WLDWSC-NH2
modifications: linker 3-12 via mXylylene; lactam 6-9
SMILES: CC(=O)N[C@H](C(=O)N[C@@H](Cc1ccc(O)cc1)C(=O)N[C@H]1CSCc2cccc(c2)CSC[C@@H](C(N)=O)NC(=O)[C@H](CO)NC(=O)[C@H](Cc2c[nH]c3ccccc23)NC(=O)[C@@H]2CC(=O)NCCC[C@H](NC(=O)[C@H]3CCCN3C(=O)[C@H](CCC(=O)O)NC1=O)C(=O)N[C@@H](Cc1c[nH]c3ccccc13)C(=O)N[C@@H](CC(C)C)C(=O)N2)C(C)C
B4: 3BP-4257 (peptide)
peptide: {DOTA}-SDCE[dP]DWLTW[Dap]C-NH2
modifications: lactam 11-2; linker 3-12 via mXylylene
SMILES: CC(C)C[C@@H]1NC(=O)[C@H](Cc2c[nH]c3ccccc23)NC(=O)[C@H](CC(=O)O)NC(=O)[C@H]2CCCN2C(=O)[C@H](CCC(=O)O)NC(=O)[C@@H]2CSCc3cccc(c3)CSC[C@@H](C(N)=O)NC(=O)[C@H](CNC(=O)C[C@H](NC(=O)[C@H](CO)NC(=O)CN3CCN(CC(=O)O)CCN(CC(=O)O)CCN(CC(=O)O)CC3)C(=O)N2)NC(=O)[C@H](Cc2c[nH]c3ccccc23)NC(=O)[C@H]([C@@H](C)O)NC1=O
B5: 3BP-3963 (peptide)
peptide: Ac-VYCE[dP]KWLEWS[Pen]-NH2
modifications: linker 3-12 via mXylylene; lactam 6-9
SMILES: CC(=O)N[C@H](C(=O)N[C@@H](Cc1ccc(O)cc1)C(=O)N[C@H]1CSCc2cccc(c2)CSC(C)(C)[C@@H](C(N)=O)NC(=O)[C@H](CO)NC(=O)[C@H](Cc2c[nH]c3ccccc23)NC(=O)[C@@H]2CCC(=O)NCCCC[C@H](NC(=O)[C@H]3CCCN3C(=O)[C@H](CCC(=O)O)NC1=O)C(=O)N[C@@H](Cc1c[nH]c3ccccc13)C(=O)N[C@@H](CC(C)C)C(=O)N2)C(C)C

Starred links: 1 amine or outer side, 2 acyl side, 3 side chain; linkers in the order of their positions; H or OH if unused. Positions of bridges follow the written chain, without caps; N, C: chain ends. Non-standard residues stand in square brackets, D forms with d. Primed or numbered codes have the meaning given here. No end group written: not given here. ξ: configuration not given here. *: point of attachment. Af3(MCprAc) = 3-aminophenylalanine with 1-methylcyclopropane-1-carbonyl on the ring amine, CC1(C(=O)Nc2cccc(C[C@H](N[*:1])C(=O)[*:2])c2)CC1; Eem = S-benzyl-cysteine-sulfone, O=C([C@H](CS(=O)(=O)Cc1ccccc1)N[*:1])[*:2]; APAc″ = 2-(4-(amino)piperidin-1-yl)acetic acid, NC1CCN(CC(=O)*)CC1; DOTA = O=C(O)CN1CCN(CC(=O)O)CCN(CC(=O)*)CCN(CC(=O)O)CC1; Phe(3,4-Cl2) = N[C@@H](Cc1ccc(Cl)c(Cl)c1)C(=O)O; Phe(3-CF3) = N[C@@H](Cc1cccc(C(F)(F)F)c1)C(=O)O; Phe(4-CF3) = N[C@@H](Cc1ccc(C(F)(F)F)cc1)C(=O)O; Trp(7-aza) = N[C@@H](Cc1c[nH]c2ncccc12)C(=O)O; ξTrp(7-Me) = Cc1cccc2c(CC(N)C(=O)O)c[nH]c12; Bip = N[C@@H](Cc1ccc(-c2ccccc2)cc1)C(=O)O; ξTrp(1-Me) = Cn1cc(CC(N)C(=O)O)c2ccccc21; Dip = N[C@H](C(=O)O)C(c1ccccc1)c1ccccc1; Phe(4-I) = N[C@@H](Cc1ccc(I)cc1)C(=O)O; dmo = (R)-dimethylornithine (D form); mXylylene = c1cc(C[*:1])cc(C[*:2])c1; Orn(Me2) = CN(C)CCC[C@H](N)C(=O)O; tBuAla = CC(C)(C)C[C@H](N)C(=O)O; Cha = N[C@@H](CC1CCCCC1)C(=O)O; NMeD = CN[C@@H](CC(=O)O)C(=O)O; Pen = CC(C)(S)[C@H](N)C(=O)O; hSer = N[C@@H](CCO)C(=O)O; AGLU′ = not defined here; Orn = NCCC[C@H](N)C(=O)O; APAc = not defined here; Dap = NC[C@H](N)C(=O)O Some results are limits rather than exact numbers.

The target of this assay is human carbonic anhydrase 9 (CAIX) (human, UniProt Q16790 38-459). In words: FACS competition on HT-29 cells, competitor tracer 3BP-2776; category A = pIC50 >8.0. The procedure:
CAIX-expressing human HT-29 colorectal cancer cells (DSMZ, RRID: CVCL_0320) were cultured in McCoys's 5A modified medium (Biochrom, #F1015) including 10% fetal calf serum (FCS), 2 mM L-glutamine, 100 U/ml penicillin and 100 μg/mL streptomycin. Cells were detached with Accutase (Biolegend, #423201) and washed in FACS buffer (PBS including 1% FCS). Cells were diluted in FACS buffer to a final concentration of 500.000 cells per ml. 200 μL of the cell suspension were transferred to a u-shaped non-binding 96-well plate (Greiner) and cells were washed in ice-cold FACS buffer.
When biotinylated compounds were used an additional incubation step with 1 μg/mL APC-Streptavidin (Miltenyi; #130-106-791) in 50 μL FACS buffer for 30 minutes on ice was performed.
Cells were washed twice with ice-cold FACS buffer and analyzed in an Attune NxT flow cytometer (Thermo Fisher). Median fluorescence intensities (MFI) of the APC/Cy5-channel were calculated by Attune NxT software.
{DOTA-APAc}-VYCE(AGLU′)[dP]DWLTWSC-NH2 (linker 3-12 via mXylylene; reading uncertain) [3BP-4113] had a pIC50 greater than 8 pic50.

The molecule {DOTA-APAc}-VYC[hSer][dP]DWLTWSC-NH2 (linker 3-12 via mXylylene; reading uncertain) [3BP-4101] had a pIC50 greater than 8 pic50.

Molecule B1 registered a pIC50 greater than 8 pic50.

Consider {DOTA-APAc}-VYCE[dP]DWL[Orn(Me2)]WSC-NH2 (linker 3-12 via mXylylene; reading uncertain) [3BP-4099], for which the pIC50 was greater than 8 pic50.

In turn, {DOTA-APAc}-VYC[Orn(Me2)][dP]DWLTWSC-NH2 (linker 3-12 via mXylylene; reading uncertain) [3BP-4096] had a pIC50 greater than 8 pic50.

{DOTA-APAc}-VYCE[dP]D[Dip]LTWSC-NH2 (linker 3-12 via mXylylene; not fully specified; reading uncertain) [3BP-4132]: the pIC50 is greater than 8 pic50.

B2 returned a pIC50 greater than 8 pic50.

Molecule {DOTA-APAc}-VYCE[dP]D[Phe(4-I)]LTWSC-NH2 (linker 3-12 via mXylylene; not fully specified; reading uncertain) [3BP-4134] gave a pIC50 greater than 8 pic50.

Molecule {DOTA-APAc″}-VYCE[dP]D[ξTrp(1-Me)]LTWSC-NH2 (linker 3-12 via mXylylene; not fully specified) [3BP-4144] yielded a pIC50 greater than 8 pic50.

In turn, {DOTA-APAc″}-VYCE[dP]DWLT[Trp(7-aza)]SC-NH2 (linker 3-12 via mXylylene) [3BP-4159] gave a pIC50 greater than 8 pic50.

Regarding {DOTA-APAc″}-VYCE[dP]DW[tBuAla]TWSC-NH2 (linker 3-12 via mXylylene) [3BP-4142], the pIC50 was greater than 8 pic50.

Molecule {DOTA-APAc}-VYCE[dP][NMeD]WLTWSC-NH2 (linker 3-12 via mXylylene; reading uncertain) [3BP-4107] showed a pIC50 greater than 8 pic50.

For the molecule {DOTA-APAc″}-VYCE[dP]D[ξTrp(7-Me)]LTWSC-NH2 (linker 3-12 via mXylylene; not fully specified) [3BP-4158], the pIC50 was greater than 8 pic50.

Consider {DOTA-APAc}-V[Orn(Me2)]CE[dP]DWLTWSC-NH2 (linker 3-12 via mXylylene; reading uncertain) [3BP-4095], for which the pIC50 is greater than 8 pic50.

For the molecule {DOTA-APAc″}-V[Dap]CE[dP]DWLTWDC-NH2 (lactam 2-11; linker 3-12 via mXylylene) [3BP-4176], the pIC50 was greater than 8 pic50.

Regarding {DOTA-APAc″}-V[Dap]CE[dP]DWLTWEC-NH2 (lactam 2-11; linker 3-12 via mXylylene) [3BP-4177], the pIC50 is greater than 8 pic50.

The molecule {DOTA-APAc}-VYCE[dP]D[Phe(3-CF3)]LTWSC-NH2 (linker 3-12 via mXylylene; not fully specified; reading uncertain) [3BP-4135] returned a pIC50 greater than 8 pic50.

In the case of {DOTA-APAc}-VYCE[dP]D[Phe(4-CF3)]LTWSC-NH2 (linker 3-12 via mXylylene; not fully specified; reading uncertain) [3BP-4139], the pIC50 is greater than 8 pic50.

With {DOTA-APAc}-VYCE[dP]D[Phe(3,4-Cl2)]LTWSC-NH2 (linker 3-12 via mXylylene; not fully specified; reading uncertain) [3BP-4133], the pIC50 is greater than 8 pic50.

As to B3, the pIC50 was greater than 8 pic50.

Take {DOTA-APAc}-VYCE[dP][hSer]WLTWSC-NH2 (linker 3-12 via mXylylene; reading uncertain) [3BP-4102]: the pIC50 was greater than 8 pic50.

The molecule {DOTA-APAc}-VYCE[dP][Eem]WLTWSC-NH2 (linker 3-12 via mXylylene; not fully specified; reading uncertain) [3BP-4123] displayed a pIC50 greater than 8 pic50.

In turn, {DOTA-APAc″}-VDCE[dP]DWLTW[Dap]C-NH2 (lactam 2-11; linker 3-12 via mXylylene) [3BP-4174] returned a pIC50 greater than 8 pic50.

For the molecule {DOTA-APAc″}-VECE[dP]DWLTW[Dap]C-NH2 (lactam 2-11; linker 3-12 via mXylylene) [3BP-4175], the pIC50 is greater than 8 pic50.

{DOTA-APAc}-VYCE[dP]DWLTW[Orn(Me2)]C-NH2 (linker 3-12 via mXylylene; reading uncertain) [3BP-4100]: the pIC50 is greater than 8 pic50.

On to B4, for which the pIC50 is greater than 8 pic50.

Molecule {DOTA-APAc}-VYCE[dmo]DWLTWSC-NH2 (linker 3-12 via mXylylene; reading uncertain) [3BP-4097] had a pIC50 greater than 8 pic50.

Molecule {DOTA-APAc}-VYCE[dP]D[Bip]LTWSC-NH2 (linker 3-12 via mXylylene; not fully specified; reading uncertain) [3BP-4131] showed a pIC50 greater than 8 pic50.

As for {DOTA-APAc″}-VYCE[dP]DW[Cha]TWSC-NH2 (linker 3-12 via mXylylene) [3BP-4143], the pIC50 was greater than 8 pic50.

As for {DOTA-APAc″}-VYCE[dP]D[Af3(MCprAc)]LTWSC-NH2 (linker 3-12 via mXylylene) [3BP-4234], the pIC50 is greater than 8 pic50.

With B5, the pIC50 was greater than 8 pic50.
